From the nanobody polyreactivity screen of Harvey et al. (2022)

Test: yeast display, Sf9 membrane polyspecificity reagent, FACS + sequencing; frameworks hold sequencing errors
Outline: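 Galactose induction of a Saccharomyces cerevisiae BJ5465 synthetic nanobody display library ran 36–48 hours. The cells were then stained for 1 hour at 4 °C with 10% biotinylated, detergent-solubilized Sf9 membrane reagent, pulled down on streptavidin microbeads and FACS-sorted into low and high (top ~1%) gates on expression and reagent-binding fluorescence. Labels for polyreactivity follow the gate of origin.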

Sequence: QVQLVESGGGLVQAGGSLRLSCAASGSTFRSNVMGWYRQAPGKAREFVAAITSSSATTYYADSVKGRFTISRDNAKNTVYLQMNSLKPEDTAVYYCAAGGRKAGPAGGQYYYWGQGTQVTVSS
- polyreactivity (PSR sort gate): low polyreactivity

Sequence: QVQLVESGGGLVQAGGSLRLSCAASGSTFRSYAMGWYRPAPGTERELVAAISYSGDSTYYADSVTGRFTISRDIAKNTVFLQMKRLKPVDTAVYYCAALRDWDIQGEPWKRYGYWGQGTQVTVSS
- polyreactivity (PSR sort gate): low polyreactivity

Sequence: QVQLVESGGGLVQAGGSLRLSCAASGSTFRSYAMGWYRQAPGKERELVAAITSGANTNYADSVKGRFTISRDNAKNTVDLQMNSLKPEDTAVYYCAKASYIIFRIEYRSGYDYWGQGTQVTVSS
- polyreactivity (PSR sort gate): low polyreactivity

Sequence: QVQLVESGGGLVQAGGSLRLSCAASGSTFRSYAMGWYRQAPGKERELVAAITWRGGSTDYADSVKGRFTISRDNAKNTVYLQMNSLKPEDTAVYYCAAAIWGDYGAYDYWGQGTQVTVSS
- polyreactivity (PSR sort gate): low polyreactivity

Sequence: QVQLVESGGGLVQAGGSLRLSCAASGSTFRTNGMGWYRQAPGKERELVAAITRGTSTNYADSVKGRFTISRDNAKNTVYLQMNSLKPEDTAVYYCAADVTGGRKYDYWGQGTQVTVSS
- polyreactivity (PSR sort gate): low polyreactivity

Sequence: QVQLVESGGGLVQAGGSLRLSCAASGSTFRTYAKGWYRQAPGKERELVASITRRGGRTYYADSVKGRFTISRDNAKNTVYLQMYSLKPEDTAVYYCAAADQQYDYWGQGTQVTVTS
- polyreactivity (PSR sort gate): high polyreactivity

Sequence: QVQLVESGGGLVQAGGSLRLSCAASGSTFRTYAMGWYRQAPGKERELVAAISVSGGRTYYADSVKGRFTISRDNAKKTVYLQMNSLKPEDTAVYYCAARQYRYELEYWGQGTQVTVSS
- polyreactivity (PSR sort gate): low polyreactivity

Sequence: QVQLVESGGGLVQAGGSLRLSCAASGSTFRTYAMGWYRQAPGKERELVATITRTGGSTYYADSVKGRFTISRDNAKNTVYLQMNSLKPEDTAVYYCAARRSHQYRGPHFNYWGQGTLVTVSS
- polyreactivity (PSR sort gate): low polyreactivity

Sequence: QVQLVESGGGLVQAGGSLRLSCAASGSTFRTYAMGWYRQAPGKERELVAVISASGGSTYYADSVKGRFTISRDNAKNTVYLQMNSLKPEDTAVYYCAVAYSRGRYYYWGQGTQVTVSS
- polyreactivity (PSR sort gate): high polyreactivity

Sequence: QVQLVESGGGLVQAGGSLRLSCAASGSTFRTYAMVWYRQAPGKERELVAAIRSRGGSTYYADSVKGRFTISRDNAKNTVYLQMNSLKPEDTAVYYCNAVPRWSYVDEDSWGQGTQVTVSS
- polyreactivity (PSR sort gate): high polyreactivity

Sequence: QVQLVESGGGLVQAGGSLRLSCAASGSTFRVYAMGWYRQAPGKERELVAAISWSGGRTYYADSVKGRFTISRDNAKNTVYLQMNSLKPEDTAVYYCAKPGYLRPSRYDYWGQGTQVTVSS
- polyreactivity (PSR sort gate): high polyreactivity

Sequence: QVQLVESGGGLVQAGGSLRLSCAASGSTFRVYAMGWYRQAPGKERELVAAITRIGGRTYYADSVKGRFTISRDNAKNTVYLQMNSLKPEDTAVYYCAARYPGGYSSGYNYWGQGTQVTVSS
- polyreactivity (PSR sort gate): high polyreactivity

Sequence: QVQLVESGGGLVQAGGSLRLSCAASGSTFRVYAMGWYRQAPGKERELVANISWGGGRTYYADSVKGRFTISRDNAKNTVYLQMNSLKPEDTAVYYCAADIAWYTHYHRIFDYWGQGTQVTVSS
- polyreactivity (PSR sort gate): low polyreactivity

Sequence: QVQLVESGGGLVQAGGSLRLSCAASGSTFRWNAMGWYTPAPGKERELVAAITSSGSTYYADSVKGRFTISRDNAKNTVYLQMNSLNPEDTAVYSCAGRANGYWNTYELDYWGQGIQVTVSS
- polyreactivity (PSR sort gate): low polyreactivity

Sequence: QVQLVESGGGLVQAGGSLRLSCAASGSTFRWYAMGWYRQAPGKERELVAAIRSSGGSTYYADSVKGRFTISRDNAKNTVYLQMNSLKPEDTAVYYCNTYPARNFYSVAGGYWGQGTQVTVSS
- polyreactivity (PSR sort gate): low polyreactivity

Sequence: QVQLVESGGGLVQAGGSLRLSCAASGSTFRWYAMGWYRQAPGKERELVAAISARGTSTYYADSVKGRFTISRDNAKNTVYLQMNSLKPEDTAVYYCAATRTYQLYRWAPRYYYWGQGTQVTVSS
- polyreactivity (PSR sort gate): high polyreactivity

Sequence: QVQLVESGGGLVQAGGSLRLSCAASGSTFRWYAMGWYRQAPGKERELVAAITWSGGRTYYADSVKGRFTISRDNAKNTVYLQMNSLKPEDTAVYYCAADRGPEHWYDYYYWGQGTQVTVSS
- polyreactivity (PSR sort gate): high polyreactivity

Sequence: QVQLVESGGGLVQAGGSLRLSCAASGSTFRYNAMGWYRQAPGKEREFVAAITTSGVRTYYADSVKGRFTISRDNAKNTVYLQMTSLKPEDSAVYYCAARANYIFYGMDYWGQGTLVTVSS
- polyreactivity (PSR sort gate): high polyreactivity

Sequence: QVQLVESGGGLVQAGGSLRLSCAASGSTFRYNAMGWYRQAPGKERELVAAISKSGGSTYYADSVKGRFTISRDNAKNTVYLQMNSLKPEDTAVYYCAAKAYINNYDYWGQGTQVTVSS
- polyreactivity (PSR sort gate): high polyreactivity

Sequence: QVQLVESGGGLVQAGGSLRLSCAASGSTFRYNAMGWYRQAPGKERELVAAISKSGGSTYYADSVKGRFTISRDNAKNTVYLQMNSLKPEDTAVYYCATSYPYRIYRSSYDYWGQGTQVTVSS
- polyreactivity (PSR sort gate): high polyreactivity

Sequence: QVQLVESGGGLVQAGGSLRLSCAASGSTFRYNAMGWYRQAPGKVRELVASITWSGGDTYYADSVKGRFTISRDNAKNTVYLQMNSLKPEDTAVYYCNKRVHYIAGRGYDYWGQGNQVTVSS
- polyreactivity (PSR sort gate): low polyreactivity

Sequence: QVQLVESGGGLVQAGGSLRLSCAASGSTFRYNAMGWYRQPPGKERELVAAISSGGSTNYADSVKGRFTISRDNAKNTVYLQMNSLKPEDTAVYYCAATRPRIPVYQNNYGYWGQGTQVTVSS
- polyreactivity (PSR sort gate): high polyreactivity

Sequence: QVQLVESGGGLVQAGGSLRLSCAASGSTFRYSAMGWDRQAPGKEREFVAAISWSGSSTYYADSVKGRFTISRDNAKNTVYLQMNILKPEDTAGYYCAARYRYRSSSYDYWGQGTQVTVSS
- polyreactivity (PSR sort gate): high polyreactivity

Sequence: QVQLVESGGGLVQAGGSLRLSCAASGSTFRYYAMGWYRQAPGKERELVAAISGSGGRTYYADSVKGRFTISRDNAKNTVYLQMNSLKPEDTAVYYCAAQCGYYDSAYGSWGQGTQVTVSS
- polyreactivity (PSR sort gate): high polyreactivity

Sequence: QVQLVESGGGLVQAGGSLRLSCAASGSTFRYYAMGWYRQAPGKERELVAAISRSGGRTYYADSVKGRFTISRDNAKNTVYLQMNSLKPEDTAVSYCATRGDGSSWGDHDYWGQGTQVTVSS
- polyreactivity (PSR sort gate): high polyreactivity

Sequence: QVQLVESGGGLVQAGGSLRLSCAASGSTFRYYAMGWYRQAPGKERELVAAISWSGGSTYYADSVKGRFTISRDNAKNTVYLQMNSLKPEDTAVYYCNKAWFPYYYYRFDYWGQGTQVTVSS
- polyreactivity (PSR sort gate): high polyreactivity

Sequence: QVQLVESGGGLVQAGGSLRLSCAASGSTFRYYAMGWYRQAPGKERELVAAITQSGGITYYADSVKGRFTISRDNAKNTVYLQMNSLKPEDTAVYYCAKRYYVDYDYWGQGTHVTVSS
- polyreactivity (PSR sort gate): low polyreactivity

Sequence: QVQLVESGGGLVQAGGSLRLSCAASGSTFRYYAMGWYRQAPGKERELVAAITQSGGITYYADSVKGRFTISRDNAKNTVYLQMNSLKPEDTAVYYCAKRYYVDYDYWGQGTQVTVSS
- polyreactivity (PSR sort gate): low polyreactivity

Sequence: QVQLVESGGGLVQAGGSLRLSCAASGSTFRYYAMGWYRQAPGKERELVAAITQSGGITYYADSVKGRFTISRDNANNTVYLQMNSLKPEDTAVYFCAKRYYVDYDYWGQGTQVTVSS
- polyreactivity (PSR sort gate): low polyreactivity

Sequence: QVQLVESGGGLVQAGGSLRLSCAASGSTFRYYAMGWYRQAPGKERELVAAITSGGSTNYADSVKGRFTISRDNAKNTVYLQMNSLKPEDTAVYYCAAGRRLRHRYNQGGPDYGYWGQGSQVTVSS
- polyreactivity (PSR sort gate): low polyreactivity

Sequence: QVQLVESGGGLVQAGGSLRLSCAASGSTFRYYAMGWYRQAPGKERELVAAITSGGSTNYADSVKGRFTISRDNAKNTVYLQMNSLKPEDTAVYYCAAGRRLRHRYNQGGPDYGYWGQGTQVTVSS
- polyreactivity (PSR sort gate): low polyreactivity

Sequence: QVQLVESGGGLVQAGGSLRLSCAASGSTFRYYAMGWYRQAPGKERELVAAITSSGGRTYYADSVKGRFTISRDNAKNTVYLQMNSLKPEDTAVYYCAAYAYYHTGDDYWGQGTQVTVSS
- polyreactivity (PSR sort gate): high polyreactivity

Sequence: QVQLVESGGGLVQAGGSLRLSCAASGSTFRYYAMGWYRQAPGKERELVATISSGGSTNYADSVKGRFTISRDNAKNTVYLQMNSLKPEDTAVYYCAAAYPQFWYWDYNYWGQGTQVTVSS
- polyreactivity (PSR sort gate): high polyreactivity

Sequence: QVQLVESGGGLVQAGGSLRLSCAASGSTFRYYAMGWYRQAPGKERELVAVISTSGNTYYADSVKGRFTISRDNAKNTVYFQMNSLKPEDTAVYYCAARGVGGQISQEYDYWGQGTQVTVSS
- polyreactivity (PSR sort gate): low polyreactivity

Sequence: QVQLVESGGGLVQAGGSLRLSCAASGSTFRYYDRGWYRQAPGKERELVAAITTSGDDTYYADSVKRRFTISRDNAKTTVYLQMNSLKPEDTAVYYCAADGYGGHKYELESWGQGTQVTVSS
- polyreactivity (PSR sort gate): low polyreactivity

Sequence: QVQLVESGGGLVQAGGSLRLSCAASGSTFRYYGMGWYRQAPGKERELVAAISNGDSTNYADSVKGRFTISRDNAKNTVYLQMNSLKPEDTAVYYCATERYSYRVYGGITTFEYWGQGSQVTVSS
- polyreactivity (PSR sort gate): high polyreactivity

Sequence: QVQLVESGGGLVQAGGSLRLSCAASGSTFRYYTMGWYRQAAGQERELVAAITSGGGSTYYADSVKGRFTISRDNAKNTVYLQMNSLKPEDTAVYYCAARTRGTADNYWGQGTQGTVSS
- polyreactivity (PSR sort gate): high polyreactivity

Sequence: QVQLVESGGGLVQAGGSLRLSCAASGSTFRYYTMGWYRQAPGKERELVAAISGSGGITYYADSVKGRFTMSRDNAKNNVYLQMNSLKPEDTAVYYCNAGVFYRDDYWGQGTQVTVSS
- polyreactivity (PSR sort gate): high polyreactivity

Sequence: QVQLVESGGGLVQAGGSLRLSCAASGSTFRYYVMGWYRQAPGKERELVAAISAGGGRTYYADSVKGRFTISRDNSKNTVYLQMNSLKPEDTAVYYCAAKSVTPYWQEYEYDYWGQGTQVTVSS
- polyreactivity (PSR sort gate): high polyreactivity

Sequence: QVQLVESGGGLVQAGGSLRLSCAASGSTFSANDMGWYRQAPGKEREFDAAITTSDDSTYYADSVKGRFTISRDNAKNTVYLQMNSVKPEDTAVYYCNAYSGYSFFGLGFFYKYDYWGQGTQVTVSS
- polyreactivity (PSR sort gate): low polyreactivity

Sequence: QVQLVESGGGLVQAGGSLRLSCAASGSTFSAYDMGWYRQAPGKERELVAAIDTGGTTYYADSVKGRFTISRDTAKNTVYVQMNSLKPEDTAVYYCIATIWYRDYGYWGQGTQVTVSS
- polyreactivity (PSR sort gate): low polyreactivity

Sequence: QVQLVESGGGLVQAGGSLRLSCAASGSTFSDNARGWYRQAPGKERELVAAIKETGGSTYYADSVKGRCTISRDNAKNTVYLQMNSLKPEDTAVYYCNADIDPYGATYAIEYDYWGQGTQVTVSS
- polyreactivity (PSR sort gate): low polyreactivity

Sequence: QVQLVESGGGLVQAGGSLRLSCAASGSTFSDYAMGWYRQAPGKERELVADISSDGSTYYADSVKGRFTISRDNAKNTVYLQMNSLKPEDTAVYYCNAGYPDYDWTWWHISYDYWGQGTQVTVSS
- polyreactivity (PSR sort gate): low polyreactivity
